The DeepSol protein solubility set

Experiment: soluble on expression in E. coli; label from the status in PepcDB or PDB records
In the case of “MRRLPPWMLGGASTGEAAARNGSQPEAPKTKAEKRPKRVQKTKEKDLNLKSDEPKRVPRKIREEAKRSPEVIQSVTVPEDDDLTVDDLLSFANEYVQRDEEGTRKERERSLSVSETTLVLDETNMTTSSQGGTKDSTAEDMLQLLMGPFYKKR”, the “soluble on expression in E. coli” value is reported as “soluble”.
With “MKEMTVSEIREVQLEMLAYIDKVARDNKIEYSLGGGSLLGAMRHKGFIPWDDDIDLMLERSQYERLMKALADANNSDFKLLHHSVEKNLWPFAKLYHTKSMYLSKTDRIHPWTGIFIDIFPLDRLPESAEERQRFFKKVHSAAANLMCTTYPNFASGSRKLYANARLILGLPRFIAYHGQAKKRAEIVDQVMETYNNQEVPYMGYTDSRYRLKEYFPREIFSEYEDVMFENIKTRKIKNEHAYLNQLYGGSYMELPPESKRESHSYYTWYWKEGLEHHHHHH” the “soluble on expression in E. coli” value was “soluble”.
In the case of “MAHHHHHHMALKLCKRFLRSNTKKPIFSKARDNLKERFDDDNYSFLEDNSFDSPLKASDEFPSYMQPSDKNSSWSEEWRDENLKLREKENRYNLRVSDNYAYSVPYNYKIVIPHKGKNIKDEKDKRKKLLNDEKYIKEEYSRDVSNTLNYSDFCGFRNPTLSTFENYRYWQDSGFKKFMNRIFPIKIPEHRKIDPLLREYIYFLHSFDPYRFTFKRLSERYLFPENVIRSIYKEESVKRFLEDYHLCDDKTKRISKKEAVLKIKELIYSKKIGYKDIGDYENIKNEQDEFCGHKNTFDQINRQIIQVESISAFPLADRRNPVPKRVDIDMTVCNTSNIKIMNWINPNDKVIF”, the “soluble on expression in E. coli” value is reported as “soluble”.
In the case of “MIKIAIPTSKGGLEDKVHESLVRAETFTLVEVKDGKIERIEVVENPHKNEPYGAGSKVAIFLVNNGVNILLTPMDCPKGKAILEAGGVKIIKVKQGKSVKEVIEAFQSSSSGYSLQ”, the “soluble on expression in E. coli” value is reported as “soluble”.
For “MGSDKIHHHHHHMNILEKLFSLKRKVALVTGGGQGIGKAIAQALAAAGAAVLIMDINEETARRTVEEIKEKGGEADFYVGDVTKEEDCFGAVKKALDRWGKLDIGVNNAGIGDWCEAENYPVEKWKKVIDVNLVGVFLSAKAEFHAMKERKYGKIINIASMSGHIVNKPQKQTAYNASKAGVIHLTRSLAAEWAPYGIRVNSISPGYIRTPLIESPNVKDLVPLWLDMIPLGRLGEVDDLIGAAIFLASPASDYMTGHDLVIDGGYTVW”, the “soluble on expression in E. coli” value was “not soluble”.
With “MGSDKIHHHHHHMSQPLFPVVEVPDFISEDSQYDTQYKRSMKWNTELGDFVRDGAHRIKECDGKEAFAIWCFKIAQTERYRCLAYPDSIGTEMERAMDNDDEKTVESMVERTITDAIMVNPRAENVRDFQFTWEGDQMHVTFKVKGSNWDEEIEISL” the “soluble on expression in E. coli” value was “not soluble”.
In the case of “MPAENIVEVHHLKKSVGQGEHELSILTGVELVVKRGETIALVGESGSGKSTLLAILAGLDDGSSGEVSLVGQPLHNMDEEARAKLRAKHVGFVFQSFMLIPTLNALENVELPALLRGESSAESRNGAKALLEQLGLGKRLDHLPAQLSGGEQQRVALARAFNGRPDVLFADEPTGNLDRQTGDKIADLLFSLNREHGTTLIMVTHDLQLAARCDRCLRLVNGQLQEEA”, the “soluble on expression in E. coli” value is reported as “soluble”.
With “MRWVSALEKRNFLTSFLHNHRLKHPDARFVLKYLLQHPHLLENVQFTETEQKQGRWLIISTAMAEEEGLVFYRRGQKSTSLAAIMGDLALHPNEPLYLTLHFPGKARNFSYLRLIDHQAFENVRRHERHEKMAKAAEQVLDEALKRHEVSILKMQIDQALDRKDMEWFQMLTEQLKKYEGQS” the “soluble on expression in E. coli” value was “not soluble”.
With “MSLAGHQAMHYSRILPNIWLGSCPRQVEHVTIKLKHELGITAVMNFQTEWDIVQNSSGCNRYPEPMTPDTMIKLYREEGLAYIWMPTPDMSTEGRVQMLPQAVCLLHALLEKGHIVYVHCNAGVGRSTAAVCGWLQYVMGWNLRKVQYFLMAKRPAVYIDEEALARAQEDFFQKFGKVRSEGHHHHHH” the “soluble on expression in E. coli” value was “soluble”.
For “MGSDKIHHHHHHMNRGCFDIAVITDREAFQAILDEWNQLADINGYYTPWFCWEWFDLCLRHGETRALHILMVRSGGSLVAVAPFTVRSERYKGVVPARILSSIGGNRSPLKGIVFGDADENMQREVTTLVLEYLRTTFKNWDILELEPVAGSNDGNSIETLIERQGLSFRSYISCANRYCDVADASFDGFFERLPQSTRKDINYCRRRLEKNGSLVFQIITDAASLDQCLDVYDAVRAKSWKAAEKDREFNRELMHVAAGKGWLRLGILSYDGTPIAVQKWIVANGRAYIYDVLYDEEYKKHSPGKILTSMMFQHAIDNERVAYVDYLRGDEPYKEEWTPSLRNRIGIEAYNKSVLGCTASILMKKILPLVKKNTDSTNAHK”, the “soluble on expression in E. coli” value was “not soluble”.
For “MAEMGSKGVTAGKIASNVQKKLTRAQEKVLQKLGKADETKDEQFEQCVQNFNKQLTEGTRLQKDLRTYLASVKAMHEASKKLNECLQEVYEPDWPGRDEANKIAENNDLLWMDYHQKLVDQALLTMDTYLGQFPDIKSRIAKRGRKLVDYDSARHHYESLQTAKKKDEAKIAKAEEELIKAQKVFEEMNVDLQEELPSLWNSRVGFYVNTFQSIAGLEENFHKEMSKLNQNLNDVLVGLEKQHGSNTFTVKAQPSDNAPAKGNKSPSPPDGSPAATPEIRVNHEPEPAGGATPGATLPKSPSQSSLPAVVVETFPATVNGTVEGGSGAGRLDLPPGFMFKVQAQHDYTATDTDELQLKAGDVVLVIPFQNPEEQDEGWLMGVKESDWNQHKELEKCRGVFPENFTERVP”, the “soluble on expression in E. coli” value was “soluble”.
For “MRTPIALSLALCLSLFPSFASAEEAAPEGEGANKPVYVDLTPALVGNYGSGPRLQYYKADIALQVADKDAATKVEHHEPLIRNQLIMLFAQQTDQSLGTVEAKESLRQEALKQVQQTLEQEEGKPLVTDLLFNNLIVQP”, the “soluble on expression in E. coli” value was “not soluble”.
In the case of “MQGEDRWADIREMNDRLIACERCPRLVEFRKAVVGRDKRFRGETYWARPVPGYGDINGRLLIVGLAPAASGGNRTGRVFTGDKSSDFLVSCLHEAGITNQPTSERRDDGLIYYDAYITAAVKCVPPDNKPLPEEIENCSVYLRSEIGFMKNLKVILVLGQIALQAVVRLIADPAEPRSRYRFVHGAVYSMNGIRVVCSYHPSPRNVNTGKLKRSDFVDLLKKVKEMALE”, the “soluble on expression in E. coli” value is reported as “not soluble”.
For “MKVIKGLTAGLIFLFLCACGGQQIKDPLNYEVEPFTFQNQDGKNVSLESLKGEVWLADFIFTNCETICPPMTAHMTDLQKKLKAGNIDVRIISFSVDPENDKPKQLKKFAANYPLSFDNWDFLTGYSQSEIEEFALKSFKAIVKKPEGEDQVIHQSSFYLVGPDGKVLKDYNGVENTPYDDIISDVKSASTLK”, the “soluble on expression in E. coli” value was “soluble”.
For “MGSLYTSELSRAVSESVAAALQRSFQGELRSASALGSGWSTSAELLNRNDSTERYFVKLSEPQAVSMFSAEFEGIQAMAESETVRVPAPICYGNTAERSFIVLEYLELGGIGNEAVYRDFGEKLAAMHRCSSGGRGYGWHRGNTIGSTPQLNTWMHSWADFFVENRLRYQLKLARSRQGGRLRNEDALLQRVHSVLQEHEIQHQVTPSLVHGDLWTGNVATLRNQNEVVIFDPATYYGDREVDLAMTELFGRLPRAFYQAYDASWPLPKGYREKRRVIYNLYHILNHGALFGGGYYDQAQSMIETILR”, the “soluble on expression in E. coli” value was “soluble”.
In the case of “MRSQRIVHIVSCHAEGEVGDVIVGGVAAPPGATLWEQSRWIARDQDLRNFVLNEPRGGVFRHANLLVPAKDPRAQMGWIIMEPADTPPMSGSNSLCVATVLLDSGILPMREPLTRLLLEAPGGLIEARAECRDGKAERVEIRNVPSFADRLDAWIEVEGLGSLQVDTAYGGDSFVIADARRLGFALRADEAAELVATGLKITHAANEQLGFRHPTNPDWDHLSFCQLAAPPERRDGVLGANNAVVIRPGKIDRSPCGTGCSARMAVLQAKGQLRVGERFVGRSIIGSEFHCHIESLTELGGRPAILPCLSGRAWITGIHQYLLDPDDPWPQGYRLSDTWPGGHC”, the “soluble on expression in E. coli” value is reported as “not soluble”.
For “MAHHHHHHMVRRLEGNPVPTIGIIFMLHAHRTAHLKYYQSMSLFAIENVDVVWGAAGYSILKQTQGAWMALYDEAYVSENKVMPFGYLVQNGVLMPTSDPCNAANTLAGDGSATAKKWGGTSQQKHRYAYEADVVPRRSCIKARTRSADNSGRRVTFCSGDTEFGVF”, the “soluble on expression in E. coli” value was “not soluble”.
For “MQRLTSARLFKGAFNVGQKRATNASAGAAAVASRPQALPQPHQASTMTPPAAAPAVAAPQASLTRSASLVAPPSTSAPPSGAAPPMPKKKIIRRIIKRKKASAGVATGEAVHRAAAEAVSQTAAPAAPSEPAFAAATGAQPPRRGLAMLNAIRKHPEGSIEEQPQVVTEKHSEEMATAQEQYHEHTHDRHPAIQETEEAHEHHYHHDAASEKVTSSRYNAASAEAETDATGGSDAMDDATSNGSSSSRKTAMVKGYRIDEVGALCSSSDAMFARRLPSGGCQFFAWPGTPLSVASSAIVSMPDTIRTVHAVFGRAGTPIDIVMDIDAQVPQEYWTMSKIRVYQRKVLDDVLTPLKEEIEKIGEEIETQVVLQSPNLKKASFHVHTRLKDAAFADFYSLHGFLFRFQDRLPNVDLQIYRPNGMLRMFSCMKENRTSAIIVFDESKWNIGFPGGKVSDEQAALHSICVRDPSTFSRVLTFEAPRQSNMPAYGGSKGACGDGSEGALRPPQVLLPLTEKEAIESASRWLRQATEVEVGEWRTWIGLGLCAYRVAYHFRNARNLPRPAMAEMLDAWTEASRKCPLKFHSGECEARWAAFDPEKLGSQSDWWSAYKRLGRLEVPMREAMEREAAFAARCASRYQAAPAAEVPFAPEPPQSAAAVGSVTSASRKMKQQKKAFRRA”, the “soluble on expression in E. coli” value was “not soluble”.
For “MASHWMIYGANGYTGRLVAEQAQREGLTPLLGGRNPAALHALGSQLGLECRVFDLGDPQACREALDQVKVVAHCAGPFSATSTPMIAACRAAGTHYVDITGEIAVFEQAHAGDAEAREAGIVVCPGVGFDVIPTDCLAACLKEALPDAQRLALGFDTGSGLSTGTAKTSVEGLKFGGKIRENGRLRDVPLGYKRRDIDFGRGLRHAVTIPWGDVATAYYSTGIPDIEVYLPAPPLLALGMRLIDPLRPLLGRQRVQDWLKGQVDKRIAGPDQAARERLRTWVWGEARNARGERRTARLETANVYDLTLHGVLLAVRHLLDYQGPGGYFTPSRLLGARCVESLPGSGRITVIG”, the “soluble on expression in E. coli” value was “not soluble”.
With “MRGASGGMIQCQYEVHISKNDTYSMDRPHFHEDIEIVLCIAGEGVFFLEPEVFPLYRGQLFLIDSSILHRSVANEEYRCMVFHISSEMLHEFSSLQSNFQARSKRSGLVATLTEEATKYLESLYGKLAEDFGNEFGGDIRQTITLLTFLLTCFSHFNEAEDGEVHTNPSLDKVAPILTYIQEHLGEAMTTQSIADAFYMSKYHLCHIFKEGTGFSLMDYVINCRILKARSLLRNGMRVQEVGENVGFRNNEHFIRTFKKLTGTPPKRYAMMYKDSDQNAQRELVVVEGKDGKIIEGIKA” the “soluble on expression in E. coli” value was “not soluble”.
For “MAEKNHQQQERLPGNPFFPSRSNAGSSFDMPETPHLIDSLTSQIDEFTIQSIIDTQRQSLKRFEKTNEMLMNCAQLGDRRIEKAKRDSVGHKETILQMKTDLEFIFKKIRMFKTVLSSKYPEVYAEVSAELTPKRSEEDE”, the “soluble on expression in E. coli” value was “not soluble”.
For “KSAKEMLEYCNSTGLSLSGMVMQNELALHSKKEIEEYFGHVWQTMQACIDRGMNTEGVLPGPLRVPRRASALRRMLVSSDKLSSDPMNVIDWVNMFALAVNEENAAGGRVVTAPTNGACGIVPAVLAYYDHFIESVSPDIYTRYFLAAGAIGALYKMNASISGAEVGCQGEVGVACSMAAAGLAELLGASPEQVCVAAEIGMEHNLGLTCDPVAGQVQVPCIERNAIASVKAINAARMAMRRTSAPRVSLDKVIETMYETGKDMNAKYRETSRGGLAIK”, the “soluble on expression in E. coli” value was “not soluble”.
In the case of “MGSDKIHHHHHHMDVWLQLLQAEPELRSLTDWNRLATRYTDSPKYTARDASGVFIIHTAPLASLARKKREFELLQQLRHDGLPVPEPLDLKQISATAVCYSRYRFLTGKTIQACLPLCRDKAYRLGQETGRLLQWIHQHEVPRATEWAIRCLEKHKRYVALYQAERPLTDDSIILSFIERNIHLIAGRPNRLQHDDVHLGNLITDGEHLVGLIDFSNHDVGDPWHDFVKMGLFQVDDSIPFAVGQVDGYFARDVPELFWRVYSVYLAMACISSIVWTSRHAPEETDQMRRRFECAVPIWYATFDRT”, the “soluble on expression in E. coli” value is reported as “not soluble”.
